Earlier results as cited in patent US10011657B2, “Anti-CS1 antibodies and antibody drug conjugates” (AbbVie Biotherapeutics Inc., priority 2014, dated 2018).

Test system: relapsed or refractory multiple myeloma
Conditions: elotuzumab added to lenalidomide and dexamethasone vs lenalidomide and dexamethasone control group; cited from earlier work

B1: Elotuzumab: monoclonal humanized IgG1 anti-CS1 antibody disclosed as HuLuc63 in U.S. Pat. No. 7,709,610 (antibody, V domains shown)
VH: EVQLVESGGGLVQPGGSLRLSCAASGFDFSRYWMSWVRQAPGKGLEWIGEINPDSSTINYAPSLKDKFIISRDNAKNSLYLQMNSLRAEDTAVYYCARPDGNYWYFDVWGQGTLVTVSS
VL: DIQMTQSPSSLSASVGDRVTITCKASQDVGIAVAWYQQKPGKVPKLLIYWASTRHTGVPDRFSGSGSGTDFTLTISSLQPEDVATYYCQQYSSYPYTFGQGTKVEIKR
- Relative reduction in the risk of disease progression or death: 30%
